T1: human TNFR1 on the cellular surface of HeLa, HT1080 and Kym-1 cells (human, UniProt P19438 30-455)
T1 sequence: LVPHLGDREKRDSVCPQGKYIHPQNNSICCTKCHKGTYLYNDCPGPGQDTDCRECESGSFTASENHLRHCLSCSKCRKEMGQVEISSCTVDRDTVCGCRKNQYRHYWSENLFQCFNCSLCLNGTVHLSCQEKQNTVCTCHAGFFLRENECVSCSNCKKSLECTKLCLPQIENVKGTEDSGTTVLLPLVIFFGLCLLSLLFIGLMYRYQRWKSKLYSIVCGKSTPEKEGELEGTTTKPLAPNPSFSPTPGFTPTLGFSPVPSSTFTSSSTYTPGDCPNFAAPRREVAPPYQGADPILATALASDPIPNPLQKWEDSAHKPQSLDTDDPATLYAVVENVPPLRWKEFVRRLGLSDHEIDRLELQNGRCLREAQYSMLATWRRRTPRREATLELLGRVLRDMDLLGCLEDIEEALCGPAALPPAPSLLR

T2: Recombinant human TNFR1-Fc fusion protein (human, UniProt P19438 30-211, limits assumed)
T2 construct: not shown: Fc part
T2 sequence: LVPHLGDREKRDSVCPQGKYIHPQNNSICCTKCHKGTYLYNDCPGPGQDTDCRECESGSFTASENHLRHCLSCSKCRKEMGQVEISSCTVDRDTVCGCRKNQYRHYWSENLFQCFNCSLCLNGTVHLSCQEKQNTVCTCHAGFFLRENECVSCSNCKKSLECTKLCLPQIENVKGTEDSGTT

T3: human Fcγ receptor IIb (human, UniProt P31994 46-217, limits assumed)
T3 construct: also called FcγRIIb
T3 sequence (looked up): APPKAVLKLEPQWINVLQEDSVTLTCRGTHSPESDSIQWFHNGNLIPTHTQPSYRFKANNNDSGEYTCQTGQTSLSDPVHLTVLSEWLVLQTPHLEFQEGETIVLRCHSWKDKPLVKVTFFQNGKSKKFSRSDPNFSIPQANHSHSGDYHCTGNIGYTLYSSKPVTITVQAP

B1: Atrosimab (antibody)
heavy: HVQLVQSGAEVKKPGSSVKVSCKASGYTFTDFYINWVRQAPGQGLEWIGEIVPSQGEAKYNDKFKARVTITADKSTSTAYMELSSLRSEDTAVYYCARWDFLDYWGQGTTVTVSSGTGGGSGPSVFLFPPKPKDTLMISRTPEVTCVVVDVSHEDPEVKFNWYVDGVEVHNAKTKPREEQYNSTYRVVSVLTVLHQDWLNGKEYKCKVSNKGLPSSIEKTISKAKGQPREPSVFIFPPSDEQLKSGTASVVCLVNNFYPRDIAVEWEVDNALQSGNSQESVTEQDSKDSTYSLSSTLTLSKADYEKHKVYSCSVMHEALHNHYTQKSFNRGEC
light: DVQMTQSPSSLSASVGDRVTITCRSSQSLLHSNGNTYLHWYQQKPGKAPKLLIYTVSNRFSGVPSRFSGSGSGTDFTLTISSLQPEDFATYYCSQSTHVPYTFGGGTKVEIKGTGGGSGPSVFLFPPKPKDTLMISRTPEVTCVVVDVSHEDPEVKFNWYVDGVEVHNAKTKPREEQYNSTYRVVSVLTVLHQDWLNGKEYKCKVSNKGLPSSIEKTISKAKGQPREPSVFPLAPSSKSTSGGTAALGCLVKDYFPSDIAVEWESGALTSGVHTFPAVLQSSGLYSLSSVVTVPSSSLGTQTYSCSVMHEALHNHYTQKSVEPKSC
notes: The Fc is modified to reduce effector functions; Produced in CHO cells; also called Fv13.7-Fc1k; VHkC/VL1C heterodimer
B2: Fab 13.7 (Fab, V domains shown)
VH: HVQLVQSGAEVKKPGSSVKVSCKASGYTFTDFYINWVRQAPGQGLEWIGEIVPSQGEAKYNDKFKARVTITADKSTSTAYMELSSLRSEDTAVYYCARWDFLDYWGQGTTVTVSS
VL: DVQMTQSPSSLSASVGDRVTITCRSSQSLLHSNGNTYLHWYQQKPGKAPKLLIYTVSNRFSGVPSRFSGSGSGTDFTLTISSLQPEDFATYYCSQSTHVPYTFGGGTKVEIKR

Key:
[1] = molecular target: T1, human TNFR1 on the cellular surface of …; assay: cell-based or functional assay
[2] = molecular target: T1, human TNFR1 on the cellular surface of …; assay: cell-based or functional assay; remark: listed apart in the source
[3] = molecular target: T2, Recombinant human TNFR1-Fc fusion …; assay: ELISA under equilibrium conditions, TNFR1-Fc coated
Description: (§1) Microtiter plates were coated with 100 μl of TNFR1-Fc fusion protein (1 μg/ml in PBS) and incubated at 4° C. overnight. The residual binding sites were blocked with 2% MPBS (skim milk in PBS, 200 μl per well) at room temperature for 2 hours and subsequently washed twice with PBS. 100 μl of the samples diluted in 2% MPBS were incubated at room temperature for 1 hour prior to the last incubation step with 100 μl of the HRP conjugated detection antibodies in 2% MPBS. Bound protein was detected with 100 μl TMB substrate solution (1 mg/ml 3,3′,5,5′-Tetramethylbenzidine[TMB], 0.006% H₂O₂ in 100 mM Na-acetate buffer, pH 6 at RT), the HRP-reaction was stopped by the addition of 50 μl 1 M H₂SO₄ and the absorption at the wavelength of 450 nm was measured using the Infinite microtiter plate reader (TECAN, Maennedorf, Switzerland). Between each incubation step and in advance of the detection, the plates were washed twice times with PBST and twice with PBS.

complement protein C1q = molecular target: T4, complement protein C1q (UniProt P02745 23-245; P02746 28-253; P02747 29-245); assay: ELISA, antibody immobilized, C1q added, n=2; concentration not shown
T4 construct: also called C1q Complement protein

[4] = molecular target: T2, Recombinant human TNFR1-Fc fusion …; assay: ELISA under equilibrium conditions, TNFR1-Fc coated; ELISA under equilibrium conditions
Description: as §1

human Fcγ receptor Ia = molecular target: T5, human Fcγ receptor Ia (human, UniProt P12314 16-288, limits assumed); assay: ELISA, antibody immobilized, human FcγRI added, n=2; concentration not shown
T5 construct: also called human FcγRI; FcγRI

human Fcγ receptor IIIa = molecular target: T6, human Fcγ receptor IIIa (human, UniProt P08637 17-208, limits assumed); assay: ELISA, antibody immobilized, human FcγRIII added, n=2; concentration not shown
T6 construct: also called human FcγRIII; FcγRIII

human Fcγ receptor IIb = molecular target: T3, human Fcγ receptor IIb; assay: ELISA, antibody immobilized, human FcγRIIb added, n=2; concentration not shown
[5] = molecular target: T2, Recombinant human TNFR1-Fc fusion …; assay: QCM at 37 C, TNFR1-Fc immobilized at ~94 ΔHz, 1:1 binding algorithm; quartz crystal microbalance, TNFR1 immobilized at ~94 ΔHz
Description: Real-time binding dynamics in protein-protein interactions were determined by quartz crystal microbalance measurements (Cell-200 C-Fast, Attana, Stockholm, Sweden). One of the binding partners (TNFR1-Fc) was chemically immobilized on a LNB Carboxyl Sensor Chip (3623-3103, Attana, Stockholm, Sweden) according to the manufacturer's protocol at a moderate density of ˜94 ΔHz. Binding experiments were performed with samples (analyte) diluted in PBST (PBS, 0.1% Tween 20) between 128 nM and 4 nM (1:2 dilution steps) at pH 7.4 with a flow rate of 25 μl/min at 37° C. The chip was regenerated with 25 μl 20 mM glycine, pH 2.0. Every third measurement, an injection of running buffer was measured which was subtracted from the binding curve prior to data analysis. Data were collected using the software provided by Attana and analyzed by Attaché Office Evaluation software (Attana, Stockholm, Sweden) and TraceDrawe (ridgview instruments, Vange, Sweden).

T5 sequence (P12314 16-288 limits assumed): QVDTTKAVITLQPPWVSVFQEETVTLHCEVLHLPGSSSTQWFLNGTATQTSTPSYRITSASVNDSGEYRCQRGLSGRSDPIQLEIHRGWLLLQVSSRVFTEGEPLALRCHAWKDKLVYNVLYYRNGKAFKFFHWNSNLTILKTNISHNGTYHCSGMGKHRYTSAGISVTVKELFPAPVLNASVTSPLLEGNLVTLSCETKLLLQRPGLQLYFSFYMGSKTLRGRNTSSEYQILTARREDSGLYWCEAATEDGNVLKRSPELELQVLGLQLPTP
T4 sequence (P02745 23-245 limits assumed, chain 1 of 3): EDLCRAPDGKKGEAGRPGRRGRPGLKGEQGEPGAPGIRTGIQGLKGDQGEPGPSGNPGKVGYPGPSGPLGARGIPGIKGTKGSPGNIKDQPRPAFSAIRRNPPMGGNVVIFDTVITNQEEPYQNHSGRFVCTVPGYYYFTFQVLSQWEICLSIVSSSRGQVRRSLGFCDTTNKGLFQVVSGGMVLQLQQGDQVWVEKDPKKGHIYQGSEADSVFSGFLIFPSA
T4 sequence (P02746 28-253 limits assumed, chain 2 of 3): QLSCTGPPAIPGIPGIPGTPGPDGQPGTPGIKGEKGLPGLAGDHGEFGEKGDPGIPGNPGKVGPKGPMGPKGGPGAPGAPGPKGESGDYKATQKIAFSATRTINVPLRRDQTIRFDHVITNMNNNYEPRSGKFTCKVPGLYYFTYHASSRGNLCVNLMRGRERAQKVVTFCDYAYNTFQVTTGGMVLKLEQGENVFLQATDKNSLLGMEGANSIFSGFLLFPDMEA
T4 sequence (P02747 29-245 limits assumed, chain 3 of 3): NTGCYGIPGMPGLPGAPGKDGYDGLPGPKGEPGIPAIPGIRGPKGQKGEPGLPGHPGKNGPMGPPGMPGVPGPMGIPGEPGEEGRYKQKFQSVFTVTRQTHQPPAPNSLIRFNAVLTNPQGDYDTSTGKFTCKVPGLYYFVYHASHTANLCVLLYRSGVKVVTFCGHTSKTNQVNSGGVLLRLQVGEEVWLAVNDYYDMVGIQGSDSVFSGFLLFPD
T6 sequence (P08637 17-208 limits assumed): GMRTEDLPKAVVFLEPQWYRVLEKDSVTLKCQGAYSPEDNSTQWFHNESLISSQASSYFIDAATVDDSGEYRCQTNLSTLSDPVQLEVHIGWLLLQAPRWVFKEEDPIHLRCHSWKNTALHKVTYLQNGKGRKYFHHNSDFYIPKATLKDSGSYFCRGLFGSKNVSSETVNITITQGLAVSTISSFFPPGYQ

Row | Binder | fold more potent inhibition compared to ATROSAB, IL-6 release assay [1] | fold more potent inhibition compared to ATROSAB, IL-8 release assay [1] | fold more potent inhibition compared to ATROSAB, cell death induction assay [1] | IC50, Cell death induction [nM] (Kym-1 cells, TNF-induced) [2] | IC50, IL-6 [nM] (IL-6 release from HeLa cells, 0.1 nM TNF) [2] | IC50, IL-8 [nM] (IL-8 release from HT1080 cells, 0.1 nM TNF) [2] | fold reduction in binding activity compared to ATROSAB [3] | fold reduction in binding activity compared to Fab 13.7 [3] | binding result (complement protein C1q) | EC50 [4] | binding result (human Fcγ receptor Ia) | binding result (human Fcγ receptor IIIa) | binding result (human Fcγ receptor IIb) | Kd [5] | koff [5] | kon [5]
1 | B1 | 3 fold | 3.5 fold | 4 fold | 16.2 nM | 54.5 nM | 24.2 nM | 4 fold | 2 fold | no binding | 0.4 nM | no binding | no binding | no binding | 2.7 nM | 0.00098 s⁻¹ | 370000 M⁻¹ s⁻¹
2 | B2 |  |  |  | 9.5 nM | 37.1 nM | 12.7 nM |  |  |  |  |  |  |  |  |  | 

From US20200299396A1 (BALIOPHARMA, published 2020)
